Reference: publication PMC3753642

How the values were obtained:
Assay in all cases: EMSA
Settings in all cases: TNK buffer (composition and pH not in material), 30 C
[1] = target: Hfq WT (Escherichia coli) (UniProt P0A6X3)
[2] = target: Hfq:R16A R16A (Escherichia coli) (UniProt P0A6X3)
[3] = target: Hfq TM R16A;R17A;R19D (Escherichia coli) (UniProt P0A6X3)

Substance	Kd [1] [nM]	Kd [2] [nM]	Kd [3] [nM]
RprA sRNA	187	623	
rpoS323 mRNA leader	144	196	
DsrA sRNA	132	373	300
ArcZ56 sRNA	49	190	
